Where “and” joins values, the source holds several entries; their conditions need not be identical. Identical values can stand only once.
Biological target: cytochrome c 552 from Thermus thermophilus HB8 (Thermus thermophilus HB8) (UniProt P04164)
UniProt P04164, sequence (P04164 whole entry): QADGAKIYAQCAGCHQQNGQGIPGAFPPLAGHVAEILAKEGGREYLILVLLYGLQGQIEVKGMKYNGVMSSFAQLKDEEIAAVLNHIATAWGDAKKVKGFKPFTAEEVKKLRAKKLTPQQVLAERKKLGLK

forward rate constant kF of electron transfer with c 552, 4°C, ionic strength 12 mM [M⁻¹ s⁻¹] | reverse rate constant kR of electron transfer with c 552, 4°C, ionic strength 12 mM | Substance
7e+07 | 7e+06 M⁻¹ s⁻¹ and 3e+06 M⁻¹ s⁻¹ | recombinant cytochrome c 550 C-terminal domain (c 550[C]) (domain or fragment)
1e+08 |  | recombinant cytochrome c 550 N-terminal domain (c 550[N]) (domain or fragment)

Source: paper PMC3561395
